We go through 1 molecule from patent US20250326839A1, “TREATMENT OF DISEASES RELATED TO COLONY-STIMULATING FACTOR 1 RECEPTOR DYSFUNCTION USING TREM2 AGONISTS” (Vigil Neuroscience, Inc., priority 2020, published 2025).

The test system of test [1] is human monocyte-derived macrophages (hMDMs). Description: Example 1E: CSF1 withdrawal, confluence and Caspase 3/7 apoptosis (Incucyte). The test is classed as cell-based. To be noted: CSF1 withdrawal (0 ng/mL), plates coated with 0.4, 2.0 or 10 μg/mL, 72 hours. The protocol: PBMCs were isolated from fresh, whole blood from human donors. CD14+ monocytes were isolated using positive magnetic selection (Miltenyi). Cells were plated in UpCell® low-adhesion plates and incubated in culture media with 50 ng/mL CSF1 for 48 hours. After 48 hours, cells were non-enzymatically harvested and plated at 25,000 cells per well in cell culture plates coated with 0.4, 2.0, or 10 μg/mL of either Ab-3 or a matching isotype control, and incubated in a humidified incubator at 37C, 5% CO2 for 72 hours. Caspase-3/7 Green reporter dye was included in the some wells to determine the number of apoptotic events over time. During incubation, cells were monitored every two hours using an Incucyte S3® analyzer (2 fields of view per well, imaged at 10×). Confluence levels were determined using the Incucyte® software, and normalized to CSF1 at 50 ng/mL, which was considered as normal culture conditions. Caspase 3/7 positive counts per field of view were calculated using Incucyte® software. Significance was determined by Ordinary One-Way ANOVA, using multiple comparisons in Graphpad Prism.

The test system is the same in test [2]. Description: Example 2E: CSF1R inhibition by PLX5622, confluence and morphology (Incucyte). The format is cell-based. To be noted: plates coated with 10 μg/mL, plus PLX5622 1 μM, 96 hours. The protocol:
PBMCs were isolated from fresh, whole blood from human donors. CD14+ monocytes were isolated using positive magnetic selection (Miltenyi). Cells were plated in UpCell® low-adhesion plates and incubated in culture media with 50 ng/mL CSF1 for 48 hours. After 48 hours, cells were non-enzymatically harvested and plated at 25,000 cells per well in cell culture plates coated with 10 μg/mL of either Ab-3 or a matching isotype control. PLX5622 was immediately added to the cultures to 1 μM, and plates were incubated in a humidified incubator at 37 C, 5% CO2 for an additional 96 hours. During incubation, cells were monitored every two hours using an Incucyte S3® analyzer (2 fields of view per well, imaged at 10×). Confluence was measured using built in S3 software, while area and eccentricity (cell shape) were measured using the built in “Cell By Cell” analysis software. Significance was determined by Student's T-test, two-tailed in Graphpad Prism.

B1: Ab-3: murinized version of a human TREM2 agonist antibody, engineered variant of 13E7; HC SEQ ID NO:2779, LC SEQ ID NO:2780 (antibody)
heavy: EVQLVQSGAEVKKPGESLKISCKGSGYSFTSYWIGWVRQMPGKGLEWMGIIYPGDADARYSPSFQGQVTISADKSISTAYLQWSSLKASDTAMYFCARRRQGIFGDALDFWGQGTLVTVSSAKTTPPSVYPLAPGSAAQTNSMVTLGCLVKGYFPEPVTVTWNSGSLSSGVHTFPAVLQSDLYTLSSSVTVPSSTWPSETVTCNVAHPASSTKVDKKIVPRDCGCKPCICTVPEVSSVFIFPPKPKDVLTITLTPKVTCVVVDISKDDPEVQFSWFVDDVEVHTAQTQPREEQFGSTFRSVSELPIMHQDWLNGKEFKCRVNSAAFPAPIEKTISKTKGRPKAPQVYTIPPPKEQMAKDKVSLTCMITDFFPEDITVEWQWNGQPAENYKNTQPIMDTDGSYFVYSKLNVQKSNWEAGNTFTCSVLHEGLHNHHTEKSLSHSPGK
light: EIVMTQSPATLSVSPGERATLSCRASQSVSSNLAWFQQKPGQAPRLLIYGASTRATGIPARFSGSGSGTEFTLTISSLQPEDFAVYYCLQDNNFPPTFGQGTKVDIKRADAAPTVSIFPPSSEQLTSGGASVVCFLNNFYPKDINVKWKIDGSERQNGVLNSWTDQDSKDSTYSMSSTLTLTKDEYERHNSYTCEATHKTSTSPIVKSFNRNEC
modifications: REGION 1..445: note = Murinized Ab-3 HC; REGION 1..214: note = Murinized Ab-3 LC
B1: the confluence result is recorded as “increased confluence levels to that of high CSF1 treated cells” in test [1] (donors 16 and 26, FIGS. 1 and 2); “restoration of confluence to levels similar to that of vehicle alone” in test [2] (FIG. 5). Besides, in test [1] (donors 16 and 26, FIGS. 3 and 4), the “Caspase 3/7 levels (apoptosis)” value is given as “reduced Caspase 3/7 levels to that of high CSF1 treated cells”. Moreover, the “cells with “high area, high eccentricity” (ramified)” value in test [2] (FIG. 6) is recorded as “restoration of “high area, high eccentricity” to levels higher than that of vehicle alone”.
